Tests used:
HLA-B*15:02 = assay: IEDB peptide-MHC binding, purified MHC/direct/fluorescence; filed as Kd, often an IC50 or EC50 that approximates it; ≥ and ≤ were set here for values at or beyond the usual limits of such assays; details: source organism: dengue virus type 4
HLA-B*46:01 = assay: as above; details: source organism: dengue virus type 4
HLA-B*57:01 = assay: IEDB peptide-MHC binding, purified MHC/competitive/radioactivity; filed as Kd, often an IC50 or EC50 that approximates it; ≥ and ≤ were set here for values at or beyond the usual limits of such assays; details: source organism: Dengue virus 4 Philippines/H241/1956
HLA-A*01:01 = assay: as above; details: source organism: Dengue virus 4 Philippines/H241/1956
HLA-A*32:01 = assay: as above; details: source organism: Dengue virus 4 Philippines/H241/1956
HLA-A*30:02 = assay: as above; details: source organism: Dengue virus 4 Philippines/H241/1956
HLA-A*02:01 = assay: IEDB peptide-MHC binding, purified MHC/competitive/radioactivity; ≥ and ≤ were set here for values at or beyond the usual limits of such assays; details: source organism: Toxoplasma gondii
HLA-A*11:01 = assay: as above; details: source organism: Toxoplasma gondii
HLA-B*07:02 = assay: as above; details: source organism: Toxoplasma gondii

RTWAYHGSY
Kd (HLA-B*15:02): ≥ 20 µM
Kd (HLA-B*46:01): ≥ 20 µM
Kd (HLA-B*57:01): 15.8 nM
Kd (HLA-A*01:01): 1280 nM
Kd (HLA-A*32:01): 1.46 nM
Kd (HLA-A*30:02): 0.19 nM

STFWPCLLR
IC50 (HLA-A*02:01): 27 µM
IC50 (HLA-A*11:01): 9.3 nM
IC50 (HLA-B*07:02): ≥ 50 µM

From the Immune Epitope Database (IEDB)
